How the values were obtained:
[1] = target: T1, recGST-BLK (full-length recombinant BLK, Sf9) (mouse, UniProt P16277 1-499); experiment: pull-down; GST pull-down: 10 µg recGST, recBLK-FLAG or recSRC bound to Glutathione-Superflow Resin, incubated with 3 µg recCLDN6C for 1 h at room temperature; washed five times in 140 mM NaCl, 10 mM Na2HPO4, 1.8 mM KH2PO4, pH 7.5; immunoblot; conditions: both partners purified
T1 construct: tyrosine-protein kinase BLK, mouse, full-length; Blk-FLAG subcloned into plEx/Bac-4; also called recBLK; recBLK-FLAG; source: Sf9 insect cells, transfected, purified (GST-tagged protein purification kit)

[2] = target: T2, recGST-SRC (full-length recombinant SRC, Sf9) (mouse, UniProt P05480 1-535); experiment: as above; conditions: both partners purified
T2 construct: proto-oncogene tyrosine-protein kinase SRC, mouse, full-length; Src-FLAG subcloned into plEx/Bac-4; also called recSRC; source: Sf9 insect cells, transfected, purified (GST-tagged protein purification kit)

T1 sequence (P16277 whole entry): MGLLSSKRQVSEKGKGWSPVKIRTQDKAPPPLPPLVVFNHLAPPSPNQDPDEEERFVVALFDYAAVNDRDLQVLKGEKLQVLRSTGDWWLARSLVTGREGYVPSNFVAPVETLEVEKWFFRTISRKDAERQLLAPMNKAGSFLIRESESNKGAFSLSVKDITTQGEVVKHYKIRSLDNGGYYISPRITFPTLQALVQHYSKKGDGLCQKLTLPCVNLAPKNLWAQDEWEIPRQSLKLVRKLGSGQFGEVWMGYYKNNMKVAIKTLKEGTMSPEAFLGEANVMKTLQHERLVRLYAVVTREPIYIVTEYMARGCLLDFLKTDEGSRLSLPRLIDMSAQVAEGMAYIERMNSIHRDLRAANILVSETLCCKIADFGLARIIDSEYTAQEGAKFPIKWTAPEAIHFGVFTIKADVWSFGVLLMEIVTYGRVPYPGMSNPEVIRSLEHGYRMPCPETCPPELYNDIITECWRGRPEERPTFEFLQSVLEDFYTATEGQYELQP

B1: recCLDN6C (recombinant C-terminal cytoplasmic domain of CLDN6, C185-V219) (domain or fragment, mouse, UniProt Q9Z262 185-219, looked up)
chain: CSSGGTQGPRHYMACYSTSVPHSRGPSEYPTKNYV
notes: claudin-6 (CLDN6), mouse, C-terminus C185-V219; source: recombinant, from plEx/Bac-4
binding result [1]: binds | binding result [2]: binds
